For one molecule, NA inhibition of recombinant NA by enzyme-linked lectin assay (ELLA), IC50 results are on record in doi:10.1101/2025.06.20.660733.

Test [1] has as its target neuraminidase of A/cattle/Texas/56283/2024 (H5N1), recombinant head domain (influenza A virus A/cattle/Texas/56283/2024 (H5N1)).
Test [2] concerns the target neuraminidase of A/Moscow/10/1999 (H3N2), recombinant head domain (influenza A virus A/Moscow/10/1999 (H3N2)).

B1: HB420 (human IgG1) (antibody, V domains shown)
VH: EVQLVESGAEVKKPGSSVKVSCMASGGSFGSYGFSWVRQAPGQGLEWMGGIIPLFDTPNYAQKFQGRVTITADASTSTVYMELSSLRSEDTAVYYCARDSLPYGDQNYYYGMHVWGQGTTVTVSS
VL: QSALTQPASLSGSPGQSITISCSGSSSDIGDYNYVSWYQQHPGKAPKLIIYDVTNRPSGVSDRLSGSKSGTTASLTISGLQAEDEADYYCSSYGGNYNLVFGGGTKLTVL
With B1, the NA inhibition of recombinant NA by enzyme-linked lectin assay (ELLA), IC50 in test [1] worked out at 50 µg/mL; in test [2] it was 0.19 µg/mL.
